Source: patent publication US20110263026, “Construction of Protein-Responsive shRNA/RNAi Control System Using RNP Motif” (JAPAN SCIENCE AND TECHNOLOGY AGENCY, published 2011)

Experiments:
L7Ae [1] = biological target: T1, L7Ae (UniProt O29494 SEQ:21-139); assay: EMSA; 40 nM RNA, 80-640 nM L7Ae; sequence-specific binding stated for Box C/D only; details: tags: His6 (pET-28b+, Ni-NTA); hairpin (shRNA)
Protocol: (§1) The binding between each shRNA and the protein was confirmed as follows: after dilution with a dialysis buffer to bring the protein concentration to concentrations 25 times the final concentrations of 80 to 640 nM, 2 μL of the protein solution with each concentration, 2 μL of 1 μM shRNA-Box C/D-GFP, 6 μL of ultrapure water, and 40 μL of Opti-MEM I (trademark, Invitrogen Corp.) were mixed and left standing at room temperature for 30 minutes to bind shRNA (40 nM) to L7Ae (80 nM, 160 nM, 320 nM, or 640 nM). shRNA-GFP and shRNA-Box C/D mut-GFP were bound to L7Ae in the same way. To each solution, 13 μL of 5× dye solution (0.25% BPB, 30% glycerol) was added and mixed, and 15 μL of this mixed solution was layered on a nondenaturing 15% polyacrylamide (1/30 bisacrylamide) gel and electrophoresed at 250 V at 4° C. for 50 minutes. After the electrophoresis, the gel was stained with SYBR Green for 15 minutes, and bands were confirmed using FLA-7000 (FUJI FILM).

L7Ae [2] = biological target: T1, L7Ae; assay: EMSA; 40 nM RNA, 80-640 nM L7Ae, Opti-MEM, room temperature; details: tags: His6 (pET-28b+, Ni-NTA); hairpin (shRNA) with Box C/D kink-turn loop
Protocol: as §1

T1 sequence (O29494 whole entry): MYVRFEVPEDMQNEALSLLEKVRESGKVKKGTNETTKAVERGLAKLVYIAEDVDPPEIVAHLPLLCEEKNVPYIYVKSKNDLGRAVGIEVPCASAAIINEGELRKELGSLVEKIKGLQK

Binder | binding result (L7Ae [1]) | binding result (L7Ae [2])
shRNA-Box C/D-mut-GFP (ssRNA) RNA: GGCAUCAAGGUGAACUUCAGCUGCCCGAAAGGGCGUCAUGCUGAAGUUCACCUUGAUGCCAG | no binding | –
shRNA-Box C/D-GFP (ssRNA) RNA: GGCAUCAAGGUGAACUUCAGCUGACCCGAAAGGGCGUGAUGCUGAAGUUCACCUUGAUGCCAG | – | binds
shRNA-GFP (ssRNA) RNA: GGCAUCAAGGUGAACUUCAAGAUCCAGCAUAGGGAUCUUGAAGUUCACCUUGAUGCCAG | no binding | –
